In patent US20140274782A1, “AFFINITY REAGENTS AND METHODS FOR DETECTION, PURIFICATION, AND PROTEOMIC ANALYSIS OF METHYLATED PROTEINS” (The Board of Trustees of the Leland Stanford Junior …, priority 2013, published 2014):

How the values were obtained:
3×MBT domain of L3MBTL1 = experiment: Triple SILAC pull-down, 3xMBT/3xMBTD355N ratio (cytoplasmic, nuclear and chromatin fractions of 293T cells); format: binding, human; conditions: SILAC ratio, pull-down by 3xMBT vs 3xMBTD355N, 293T cells;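 note: proteins quantified with MaxQuant, requiring at least two unique peptides and quantification in both label directions, normalized to the mean of proteins from a digested loading control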
G9a and GLP = molecular target: T1, G9a and GLP (Homo sapiens, UniProt Q96KQ7+Q9H9B1); experiment: Triple SILAC pull-down after UNC0638 treatment of 293T cells, DMSO/UNC0638 ratio of protein captured by 3×MBT; format: cell-based; design: cells were treated for 24 hours with UNC0638 at 2.5 μM or DMSO vehicle control; endogenous in cells; host or cells: HEK 293T; conditions: SILAC ratio of protein captured by 3xMBT, 293T cells treated 24 hours with UNC0638 at 2.5 μM or DMSO;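 note: mass spectrometry (Q-Exactive) SILAC quantitation, DMSO/UNC0638 ratio computed after subtracting 3×MBTD355N mutant pull-down background, only proteins with at least twofold 3×MBT over mutant signal considered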
T1 sequence (Q96KQ7 2-1210 limits assumed): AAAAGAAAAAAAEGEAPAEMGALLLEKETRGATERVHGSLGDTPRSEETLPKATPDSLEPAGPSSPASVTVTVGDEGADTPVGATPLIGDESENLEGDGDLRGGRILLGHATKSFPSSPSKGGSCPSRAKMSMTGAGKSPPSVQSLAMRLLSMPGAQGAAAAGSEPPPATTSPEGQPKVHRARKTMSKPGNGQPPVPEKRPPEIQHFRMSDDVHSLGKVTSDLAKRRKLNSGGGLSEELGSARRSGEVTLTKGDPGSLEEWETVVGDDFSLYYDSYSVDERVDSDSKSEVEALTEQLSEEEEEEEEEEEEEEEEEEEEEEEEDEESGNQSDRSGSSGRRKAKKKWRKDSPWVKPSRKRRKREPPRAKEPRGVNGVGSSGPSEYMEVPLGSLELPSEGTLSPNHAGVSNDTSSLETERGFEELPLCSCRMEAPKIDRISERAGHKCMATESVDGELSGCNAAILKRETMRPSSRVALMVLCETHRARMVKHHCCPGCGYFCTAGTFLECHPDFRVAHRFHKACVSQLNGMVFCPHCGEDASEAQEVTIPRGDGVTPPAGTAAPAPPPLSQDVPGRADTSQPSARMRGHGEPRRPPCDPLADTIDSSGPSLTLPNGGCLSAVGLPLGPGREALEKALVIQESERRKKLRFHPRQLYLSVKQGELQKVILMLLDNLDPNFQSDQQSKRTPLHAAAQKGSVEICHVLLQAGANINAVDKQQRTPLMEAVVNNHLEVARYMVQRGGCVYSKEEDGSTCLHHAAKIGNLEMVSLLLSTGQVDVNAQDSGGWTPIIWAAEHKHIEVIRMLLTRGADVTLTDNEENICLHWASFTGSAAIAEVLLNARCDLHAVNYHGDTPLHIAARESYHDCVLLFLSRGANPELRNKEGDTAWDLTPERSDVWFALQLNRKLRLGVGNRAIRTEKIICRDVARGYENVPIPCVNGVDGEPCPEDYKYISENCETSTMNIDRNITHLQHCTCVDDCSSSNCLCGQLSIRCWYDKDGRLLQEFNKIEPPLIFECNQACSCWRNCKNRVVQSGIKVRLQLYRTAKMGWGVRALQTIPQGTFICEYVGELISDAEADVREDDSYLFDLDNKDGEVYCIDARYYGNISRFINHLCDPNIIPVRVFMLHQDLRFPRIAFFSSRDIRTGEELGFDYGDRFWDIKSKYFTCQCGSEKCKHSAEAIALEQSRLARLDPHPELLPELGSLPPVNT
T1 sequence (Q9H9B1 2-1298 limits assumed): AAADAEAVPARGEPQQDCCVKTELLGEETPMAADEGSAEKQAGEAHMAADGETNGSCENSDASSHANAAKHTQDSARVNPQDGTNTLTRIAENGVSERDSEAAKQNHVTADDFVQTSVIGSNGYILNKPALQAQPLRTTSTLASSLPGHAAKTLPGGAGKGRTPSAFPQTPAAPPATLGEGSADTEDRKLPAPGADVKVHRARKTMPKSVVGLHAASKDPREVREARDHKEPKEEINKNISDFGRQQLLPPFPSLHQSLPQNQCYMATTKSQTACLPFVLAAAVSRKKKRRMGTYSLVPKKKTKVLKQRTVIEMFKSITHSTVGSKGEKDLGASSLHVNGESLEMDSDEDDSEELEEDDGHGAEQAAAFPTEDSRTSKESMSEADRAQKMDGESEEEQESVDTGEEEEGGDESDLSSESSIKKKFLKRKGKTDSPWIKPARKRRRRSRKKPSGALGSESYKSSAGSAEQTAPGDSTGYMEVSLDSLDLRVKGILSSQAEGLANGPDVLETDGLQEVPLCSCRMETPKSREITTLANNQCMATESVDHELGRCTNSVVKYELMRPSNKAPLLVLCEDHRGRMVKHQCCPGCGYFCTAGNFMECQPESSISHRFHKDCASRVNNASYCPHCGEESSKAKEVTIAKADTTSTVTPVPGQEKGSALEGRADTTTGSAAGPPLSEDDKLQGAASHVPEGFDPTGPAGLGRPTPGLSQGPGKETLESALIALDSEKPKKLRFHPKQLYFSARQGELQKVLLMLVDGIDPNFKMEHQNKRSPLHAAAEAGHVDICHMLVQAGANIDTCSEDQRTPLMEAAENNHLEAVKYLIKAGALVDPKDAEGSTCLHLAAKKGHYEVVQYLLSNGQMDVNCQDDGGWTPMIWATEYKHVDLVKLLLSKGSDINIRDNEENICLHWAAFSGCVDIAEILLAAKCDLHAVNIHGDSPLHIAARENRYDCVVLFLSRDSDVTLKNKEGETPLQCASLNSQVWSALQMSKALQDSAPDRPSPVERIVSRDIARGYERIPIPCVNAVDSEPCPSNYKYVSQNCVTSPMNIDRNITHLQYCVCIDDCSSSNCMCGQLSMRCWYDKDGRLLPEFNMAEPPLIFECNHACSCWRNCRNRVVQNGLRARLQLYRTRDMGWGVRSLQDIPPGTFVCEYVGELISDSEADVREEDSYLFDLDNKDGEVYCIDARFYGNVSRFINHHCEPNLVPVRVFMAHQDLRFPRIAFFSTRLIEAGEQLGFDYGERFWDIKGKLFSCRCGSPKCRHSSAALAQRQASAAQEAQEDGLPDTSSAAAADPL

B1: Cytoplasmic FMR1-interacting protein 1 (protein, UniProt Q7L576 1-1253, looked up)
Cytoplasmic FMR1-interacting …: MAAQVTLEDALSNVDLLEELPLPDQQPCIEPPPSSLLYQPNFNTNFEDRNAFVTGIARYIEQATVHSSMNEMLEEGQEYAVMLYTWRSCSRAIPQVKCNEQPNRVEIYEKTVEVLEPEVTKLMNFMYFQRNAIERFCGEVRRLCHAERRKDFVSEAYLITLGKFINMFAVLDELKNMKCSVKNDHSAYKRAAQFLRKMADPQSIQESQNLSMFLANHNKITQSLQQQLEVISGYEELLADIVNLCVDYYENRMYLTPSEKHMLLKVMGFGLYLMDGSVSNIYKLDAKKRINLSKIDKYFKQLQVVPLFGDMQIELARYIKTSAHYEENKSRWTCTSSGSSPQYNICEQMIQIREDHMRFISELARYSNSEVVTGSGRQEAQKTDAEYRKLFDLALQGLQLLSQWSAHVMEVYSWKLVHPTDKYSNKDCPDSAEEYERATRYNYTSEEKFALVEVIAMIKGLQVLMGRMESVFNHAIRHTVYAALQDFSQVTLREPLRQAIKKKKNVIQSVLQAIRKTVCDWETGHEPFNDPALRGEKDPKSGFDIKVPRRAVGPSSTQLYMVRTMLESLIADKSGSKKTLRSSLEGPTILDIEKFHRESFFYTHLINFSETLQQCCDLSQLWFREFFLELTMGRRIQFPIEMSMPWILTDHILETKEASMMEYVLYSLDLYNDSAHYALTRFNKQFLYDEIEAEVNLCFDQFVYKLADQIFAYYKVMAGSLLLDKRLRSECKNQGATIHLPPSNRYETLLKQRHVQLLGRSIDLNRLITQRVSAAMYKSLELAIGRFESEDLTSIVELDGLLEINRMTHKLLSRYLTLDGFDAMFREANHNVSAPYGRITLHVFWELNYDFLPNYCYNGSTNRFVRTVLPFSQEFQRDKQPNAQPQYLHGSKALNLAYSSIYGSYRNFVGPPHFQVICRLLGYQGIAVVMEELLKVVKSLLQGTILQYVKTLMEVMPKICRLPRHEYGSPGILEFFHHQLKDIVEYAELKTVCFQNLREVGNAILFCLLIEQSLSLEEVCDLLHAAPFQNILPRVHVKEGERLDAKMKRLESKYAPLHLVPLIERLGTPQQIAIAREGDLLTKERLCCGLSMFEVILTRIRSFLDDPIWRGPLPSNGVMHVDECVEFHRLWSAMQFVYCIPVGTHEFTVEQCFGDGLHWAGCMIIVLLGQQRRFAVLDFCYHLLKVQKHDGKDEIIKNVPLKKMVERIRKFQILNDEIITILDKYLKSGDGEGTPVEHVRCFQPPIHQSLASS
3×MBT domain of L3MBTL1
  Protein Ratios 3xMBT/D355N: 3.4
G9a and GLP
  Protein Ratios DMSO/UNC0638: 1.4

B2: Probable ATP-dependent RNA helicase DDX46 (protein, UniProt Q7L014 2-1031, looked up)
Probable ATP-dependent RNA …: GRESRHYRKRSASRGRSGSRSRSRSPSDKRSKRGDDRRSRSRDRDRRRERSRSRDKRRSRSRDRKRLRRSRSRERDRSRERRRSRSRDRRRSRSRSRGRRSRSSSPGNKSKKTENRSRSKEKTDGGESSKEKKKDKDDKEDEKEKDAGNFDQNKLEEEMRKRKERVEKWREEQRKKAMENIGELKKEIEEMKQGKKWSLEDDDDDEDDPAEAEKEGNEMEGEELDPLDAYMEEVKEEVKKFNMRSVKGGGGNEKKSGPTVTKVVTVVTTKKAVVDSDKKKGELMENDQDAMEYSSEEEEVDLQTALTGYQTKQRKLLEPVDHGKIEYEPFRKNFYVEVPELAKMSQEEVNVFRLEMEGITVKGKGCPKPIKSWVQCGISMKILNSLKKHGYEKPTPIQTQAIPAIMSGRDLIGIAKTGSGKTIAFLLPMFRHIMDQRSLEEGEGPIAVIMTPTRELALQITKECKKFSKTLGLRVVCVYGGTGISEQIAELKRGAEIIVCTPGRMIDMLAANSGRVTNLRRVTYVVLDEADRMFDMGFEPQVMRIVDNVRPDRQTVMFSATFPRAMEALARRILSKPIEVQVGGRSVVCSDVEQQVIVIEEEKKFLKLLELLGHYQESGSVIIFVDKQEHADGLLKDLMRASYPCMSLHGGIDQYDRDSIINDFKNGTCKLLVATSVAARGLDVKHLILVVNYSCPNHYEDYVHRAGRTGRAGNKGYAYTFITEDQARYAGDIIKALELSGTAVPPDLEKLWSDFKDQQKAEGKIIKKSSGFSGKGFKFDETEQALANERKKLQKAALGLQDSDDEDAAVDIDEQIESMFNSKKRVKDMAAPGTSSVPAPTAGNAEKLEIAKRLALRINAQKNLGIESQDVMQQATNAILRGGTILAPTVSAKTIAEQLAEKINAKLNYVPLEKQEEERQDGGQNESFKRYEEELEINDFPQTARWKVTSKEALQRISEYSEAAITIRGTYFPPGKEPKEGERKIYLAIESANELAVQKAKAEITRLIKEELIRLQNSYQPTNKGRYKVL
3×MBT domain of L3MBTL1
  Protein Ratios 3xMBT/D355N: 5.2
G9a and GLP
  Protein Ratios DMSO/UNC0638: 1.4

B3: Protein syndesmos (protein, UniProt Q9BRJ7 1-211, looked up)
Tudor-interacting repair …: MSTAAVPELKQISRVEAMRLGPGWSHSCHAMLYAANPGQLFGRIPMRFSVLMQMRFDGLLGFPGGFVDRRFWSLEDGLNRVLGLGLGCLRLTEADYLSSHLTEGPHRVVAHLYARQLTLEQLHAVEISAVHSRDHGLEVLGLVRVPLYTQKDRVGGFPNFLSNAFVSTAKCQLLFALKVLNMMPEEKLVEALAAATEKQKKALEKLLPASS
3×MBT domain of L3MBTL1
  Protein Ratios 3xMBT/D355N: 3.5
G9a and GLP
  Protein Ratios DMSO/UNC0638: 1.3

B4: Probable ATP-dependent RNA helicase DDX23 (protein, UniProt Q9BUQ8 1-820, looked up)
Probable ATP-dependent RNA …: MAGELADKKDRDASPSKEERKRSRTPDRERDRDRDRKSSPSKDRKRHRSRDRRRGGSRSRSRSRSKSAERERRHKERERDKERDRNKKDRDRDKDGHRRDKDRKRSSLSPGRGKDFKSRKDRDSKKDEEDEHGDKKPKAQPLSLEELLAKKKAEEEAEAKPKFLSKAEREAEALKRRQQEVEERQRMLEEERKKRKQFQDLGRKMLEDPQERERRERRERMERETNGNEDEEGRQKIREEKDKSKELHAIKERYLGGIKKRRRTRHLNDRKFVFEWDASEDTSIDYNPLYKERHQVQLLGRGFIAGIDLKQQKREQSRFYGDLMEKRRTLEEKEQEEARLRKLRKKEAKQRWDDRHWSQKKLDEMTDRDWRIFREDYSITTKGGKIPNPIRSWKDSSLPPHILEVIDKCGYKEPTPIQRQAIPIGLQNRDIIGVAETGSGKTAAFLIPLLVWITTLPKIDRIEESDQGPYAIILAPTRELAQQIEEETIKFGKPLGIRTVAVIGGISREDQGFRLRMGCEIVIATPGRLIDVLENRYLVLSRCTYVVLDEADRMIDMGFEPDVQKILEHMPVSNQKPDTDEAEDPEKMLANFESGKHKYRQTVMFTATMPPAVERLARSYLRRPAVVYIGSAGKPHERVEQKVFLMSESEKRKKLLAILEQGFDPPIIIFVNQKKGCDVLAKSLEKMGYNACTLHGGKGQEQREFALSNLKAGAKDILVATDVAGRGIDIQDVSMVVNYDMAKNIEDYIHRIGRTGRAGKSGVAITFLTKEDSAVFYELKQAILESPVSSCPPELANHPDAQHKPGTILTKKRREETIFA
3×MBT domain of L3MBTL1
  Protein Ratios 3xMBT/D355N: 4.8
G9a and GLP
  Protein Ratios DMSO/UNC0638: 1.3
